A short description of this data set: protein stability index of a GFP-peptide fusion (GPS, HEK-293T) (PSI 1-6); higher = more stable.
[1] abbreviates: treatment: DMSO, c terminus: a fixed tail appended.
[2] abbreviates: treatment: MLN4924 1 uM, 8 h, c terminus: a fixed tail appended.
The mark [3] stands for this setting: treatment: DMSO, c terminus: native.
Setting [4] is: treatment: MLN4924 1 uM, 8 h, c terminus: native.

Our source for the protein stability index values is the supplement of paper PMC10567573.

± gives the standard deviation.
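Further: 24-mer peptide tiles fused after GFP, lentivirally expressed, FACS-sorted into six equal bins by GFP/DsRed ratio, decoded by Illumina sequencing, PSI is the read-weighted mean bin number.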

In the case of DYHLLHPVENIPEIILYWKHSTIF [SLC25A25], the protein stability index under setting [1] came to 2.71 ± 0.46 and the protein stability index under setting [2] came to 2.76 ± 0.63.
In the case of ILALELICSLICLLIYTVKIRRFN [TMEM192], the protein stability index runs as follows: under setting [1], 3.42 ± 0.29; under setting [2], 3.2 ± 0.41.
On to PANVDASVMYRKWKESKGKDREYT [CDC34], for which the protein stability index runs as follows: under setting [1], 4.16 ± 0.33; under setting [2], 4.21 ± 0.13.
On the same counts, the results for QMPKFDLGPLLSEPLVLYNQNLSN [MYOZ1] are 3.15 ± 0.1 and 3 ± 0.11.
WQVLCMLSLCCWGWVSGQLRYSVV [PCDHGC5]: the protein stability index by setting is: under setting [1], 3.24 ± 0.69; under setting [2], 3.04 ± 0.35.
On to FTQSGPIVSRATGRCLEVEMSKDA [GALNT9], for which the protein stability index is 2.71 ± 0.35 under setting [1] and 3.34 ± 0.54 under setting [2].
LCSDLEEAPEAELSQAPAEGPDLV [HES6]: the protein stability index is, setting by setting: under setting [1], 5.61 ± 0.12; under setting [2], 5.57 ± 0.3.
Taken in the same sequence, the figures for TREAHRESSVPVTPSVPPPASQHS [FBF1] were 4.94 ± 0.099 and 5.07 ± 0.12.
Turning to KGCLKLCRRCYDWIHRPGCRCKNS [SPRY1], the protein stability index was determined as 3.04 ± 0.2 under setting [1] and 3.46 ± 0.2 under setting [2].
Sequence GKGSIKELFPTGKQLEPLVAPLAD [VPS39] registered a protein stability index under setting [1] of 4.08 ± 0.26 and a protein stability index under setting [2] of 4.08 ± 0.11.
Taken in the same sequence, the figures for AEEIRIKGKYNISSEDYRQLELVI [KCNK9] were 2.25 ± 0.2 and 2.05 ± 0.38.
Consider QIITSLVFHLPFYSSNQLHHFFCD [OR10K2], for which the protein stability index was determined as 2.8 ± 0.094 under setting [1] and 3.02 ± 0.21 under setting [2].
On to TCECLEGFRLAEDGKRCRRKDVCK [MATN2], for which the protein stability index by setting is: under setting [1], 4.24 ± 0.25; under setting [2], 4.83 ± 0.28.
Taken in the same sequence, the figures for GAFGIVHLCLRKADQKLVIIKQIP [NEK8] were 2.55 ± 0.48 and 2.3 ± 0.33.
For the sequence NPVQPIGPQTPKACDSKLTFDAIT [MMP1], the protein stability index was determined as 4.21 ± 0.22 under setting [1] and 4.23 ± 0.22 under setting [2].
Take LGNLVEGLDFHRFYFENLWSRNSK [CAMK2A]: the protein stability index is 2.2 ± 0.47 under setting [1] and 2.51 ± 0.24 under setting [2].
PLSPAFFGEDGIFRHDRLRFRDFV [PBXIP1] registered a protein stability index under setting [1] of 2.77 ± 0.16 and a protein stability index under setting [2] of 2.91 ± 0.39.
As for KSKTRSLLKRMESLKLKSSHHSKH [DLC1], the protein stability index runs as follows: under setting [1], 3.48 ± 0.14; under setting [2], 3.53 ± 0.16.
Take NVCSLLAQTPLHVAAETGHTSTAR [RIPK4]: the protein stability index reads like this: under setting [1], 3.67 ± 0.26; under setting [2], 3.47 ± 0.27.
With AKGSLGTQIGFADLMGVLTKGVRE [FEM1A], the protein stability index under setting [1] worked out at 2.49 ± 0.19 and the protein stability index under setting [2] is 2.4 ± 0.3.
LPVLRGFPAKYIYDPWNAPEGIQK [CRY1] registered a protein stability index under setting [1] of 2.39 ± 0.17 and a protein stability index under setting [2] of 2.28 ± 0.34.
Consider ELPDPLGGLLDEAMLDEISLMDLA [NFE2L1], for which the protein stability index runs as follows: under setting [1], 4.26 ± 0.54; under setting [2], 4.55 ± 0.23.
As to VDISVPPTTDGQKPNKLQCCQNL [RAB11B], the protein stability index runs as follows: under setting [3], 4.77 ± 0.31; under setting [4], 4.93 ± 0.091.
For the sequence TESEIESETDFETEPETAPTTEPE [GNAS], the protein stability index runs as follows: under setting [1], 5.66 ± 0.2; under setting [2], 5.68 ± 0.27.
In the case of LKSLIRLVKHWYQNCKKKLGKLPP [OAS1], the protein stability index under setting [1] worked out at 2.94 ± 0.36 and the protein stability index under setting [2] is 3.02 ± 0.25.
On the same counts, the results for GHAAPGTDAGKAFCMFYAVLGIPL [KCNK9] are 2.81 ± 0.19 and 2.84 ± 0.39.
Regarding VNQYVIRPGPSASAASSAAAGEPL [RNF208], the protein stability index is, setting by setting: under setting [1], 3.88 ± 0.22; under setting [2], 3.96 ± 0.23.
Taken in the same sequence, the figures for AGARKIYAVEASTMAQHAEVLVKS [CARM1] were 3.79 ± 0.39 and 4.07 ± 0.58.
Sequence AGLASGLLNQQSLKRSANQMGVSA [MED27] returned a protein stability index under setting [1] of 3.62 ± 0.06 and a protein stability index under setting [2] of 3.69 ± 0.096.
In the case of IKMMQAVRQAFQDQDDRRTWDGRP [GFOD1], the protein stability index is, setting by setting: under setting [1], 3.21 ± 0.26; under setting [2], 3.6 ± 0.19.
KEHAVTMPCTWVMACAYAPSGCAI [GNB5]: the protein stability index is 2.8 ± 0.36 under setting [1] and 2.49 ± 0.59 under setting [2].
On the same counts, the results for TLGQAWQGYVSDIRRFLSAFHEPQ [DFFB] are 2.29 ± 0.18 and 2.04 ± 0.22.
On to DEPGKGGFWRIDPQYAERLLSGAF [FOXJ1], for which the protein stability index is 2.6 ± 0.25 under setting [1] and 2.73 ± 0.34 under setting [2].
Turning to TSDGYTALHLAARNGHLATVKLLV [RIPK4], the protein stability index reads like this: under setting [1], 2.35 ± 0.57; under setting [2], 2.25 ± 0.33.
As for TSGNPNGRYGSGYLLASTPESEL [SLC6A17], the protein stability index reads like this: under setting [3], 4.62 ± 0.37; under setting [4], 4.58 ± 0.2.
As to SSSGYSSAEINQDLNIQLLKDGYR [FAM219A], the protein stability index is, setting by setting: under setting [1], 3.67 ± 0.15; under setting [2], 3.85 ± 0.22.
As for SDSGLSLDSSHSPSSLSSSEGSSS [NFE2L1], the protein stability index reads like this: under setting [1], 5.41 ± 0.23; under setting [2], 5.34 ± 0.17.
On to RNLETQHKVLELTAENERLQKKVE [CEBPB], for which the protein stability index is, setting by setting: under setting [1], 5.12 ± 0.57; under setting [2], 5.49 ± 0.049.
On to DIDMTDYDDVRRCCSSADICPKCW [PRIM1], for which the protein stability index under setting [1] was determined as 4.8 ± 0.41 and the protein stability index under setting [2] was 4.84 ± 0.25.
On to ELSEVLENQSSQAELKEAVEEPSS [CHGA], for which the protein stability index reads like this: under setting [1], 5.78 ± 0.21; under setting [2], 5.67 ± 0.34.
As to NYFVTMFDDYSATLPLTLIVILEN [SLC6A17], the protein stability index by setting is: under setting [1], 3.05 ± 0.61; under setting [2], 2.85 ± 0.62.
Take TGQSKIYSYMSPNKCSGMRFPLQE [KMT5A]: the protein stability index worked out at 2.28 ± 0.29 under setting [1] and 2.27 ± 0.11 under setting [2].
Taken in the same sequence, the figures for TKILQERAVLGANDPEKNFLTTAI [NSDHL] were 3.53 ± 0.14 and 3.38 ± 0.13.
For EMSKDANFGLRLVVQRCSGQKWMI [GALNT9], the protein stability index runs as follows: under setting [1], 2.2 ± 0.65; under setting [2], 2.85 ± 1.
Regarding MEVGSGSRELSLRPSRSGAQQLEE [EID1], the protein stability index under setting [1] amounted to 5.43 ± 0.23 and the protein stability index under setting [2] was determined as 5.25 ± 0.35.
Sequence LESRIRDVHELFLQMAVLVEKQAD [STX11] displayed a protein stability index under setting [1] of 2.27 ± 0.35 and a protein stability index under setting [2] of 2.37 ± 0.34.
On the same counts, the results for TALVGLRQNLSKSWLDVQVSNTYV [TPD52L3] are 2.39 ± 0.96 and 2.19 ± 0.53.
Turning to LGLRQHHCRKCGQAVCGKCSSKRS [WDFY1], the protein stability index under setting [1] came to 4.28 ± 0.29 and the protein stability index under setting [2] is 4.26 ± 0.29.
Taken in the same sequence, the figures for ELHIHRLRYLSSIWNILDLVVILL [PKD2L1] were 2.28 ± 0.33 and 2.54 ± 0.28.
In the case of QGDPKGEMAATPAGFAQLTHLLMG [HDAC6], the protein stability index is, setting by setting: under setting [1], 3.1 ± 0.16; under setting [2], 3.06 ± 0.14.
Take VTRQPRNLQDLCRIKIRQCIGLQN [ASB7]: the protein stability index by setting is: under setting [1], 3.4 ± 0.56; under setting [2], 3.35 ± 0.39.
On the same counts, the results for TNAGFLQTESELQELSEVLELLSA [FAN1] are 3.04 ± 0.21 and 3.03 ± 0.53.
On to HLEIDDMYTPAYGDFDFDEVKFPN [MYORG], for which the protein stability index worked out at 4.49 ± 0.12 under setting [1] and 4.26 ± 0.19 under setting [2].
As for EKPPSGTKEKKHQCDHCERCFYTR [PLAGL1], the protein stability index by setting is: under setting [1], 3.87 ± 0.26; under setting [2], 4.3 ± 0.62.
In the case of VLGFLIENFKGLAIPYLEHIIHVW [VPS39], the protein stability index runs as follows: under setting [1], 2.36 ± 0.46; under setting [2], 2.5 ± 0.31.
Turning to SKKGLSFFAFEHSEEYQQAQHKFL [TCF25], the protein stability index by setting is: under setting [1], 2.85 ± 0.21; under setting [2], 3 ± 0.15.
Taken in the same sequence, the figures for KMKKLGQAMEEDLIVGLQGMDLNL [HDAC6] were 3.86 ± 0.24 and 3.5 ± 0.43.
In turn, AKQQKFIKAVTHQVKFGQQNPRQV [ZC3H15] yielded a protein stability index under setting [1] of 3.19 ± 0.22 and a protein stability index under setting [2] of 3.4 ± 0.3.
ENHEIYMKDSMSAAEVGTGQYATT [EPB41L3]: the protein stability index reads like this: under setting [1], 4.79 ± 0.22; under setting [2], 4.83 ± 0.3.
Take QWWASVGMDDFLGVYSMPAGTKVF [TLE6]: the protein stability index is 2.23 ± 0.82 under setting [1] and 2.26 ± 0.45 under setting [2].
LGRMFGSGREHNFTRPNEKGEYEV [BTBD10] came in with a protein stability index under setting [1] of 3.95 ± 0.08 and a protein stability index under setting [2] of 3.98 ± 0.25.
On to QPKKNNVMARTRLVVPNKGYSSLD [FAM219A], for which the protein stability index reads like this: under setting [1], 3.85 ± 0.3; under setting [2], 4.07 ± 0.27.
Turning to TFWKEDKAFWKEDNALWERDRNLL [CCDC70], the protein stability index by setting is: under setting [1], 2.95 ± 0.12; under setting [2], 3.2 ± 0.43.
As for IELLTGETWNPFKLQYQLRNVRER [GOLPH3L], the protein stability index is, setting by setting: under setting [1], 2.29 ± 0.27; under setting [2], 2.49 ± 0.21.
On to LADKELVHMISWAKKIPGMRGNA [ESR2], for which the protein stability index is, setting by setting: under setting [3], 2.95 ± 0.85; under setting [4], 2.56 ± 0.7.
With SLRSYLKRRGPQRSVDVVVSSVFL [PHTF1], the protein stability index by setting is: under setting [1], 2.48 ± 0.32; under setting [2], 2.09 ± 0.24.
In turn, FEEFVHYLQDHEKKLRLVFKSLDK [SLC25A25] had a protein stability index under setting [1] of 2.18 ± 0.27 and a protein stability index under setting [2] of 2.51 ± 0.31.
On the same counts, the results for TIDDTISKFRRKDREDSPERCSDS [CLINT1] are 5.5 ± 0.3 and 5.44 ± 0.3.
In the case of TSDSEGAHVNTLHSGTKRDPKEDV [PHTF1], the protein stability index was determined as 5.51 ± 0.22 under setting [1] and 5.54 ± 0.21 under setting [2].
Take PESLTKPDQVAPFTFLQPLPLSPG [ATF4]: the protein stability index was determined as 4.21 ± 0.3 under setting [1] and 4.2 ± 0.12 under setting [2].
Taken in the same sequence, the figures for LLCVNYFFYGETVTDYFFTLVQRE [CDS2] were 2.9 ± 0.36 and 3.2 ± 0.41.
The sequence QSSHYLQWILDKQDLLKERQKDLK [CCNC] yielded a protein stability index under setting [1] of 2.87 ± 0.36 and a protein stability index under setting [2] of 3.16 ± 0.27.
